Results from IntAct's records for PubMed 35512704.

B1: Speckle-type POZ protein (Homo sapiens), O43791 (parent)
chain: MSRVPSPPPPAEMSSGPVAESWCYTQIKVVKFSYMWTINNFSFCREEMGEVIKSSTFSSGANDKLKWCLRVNPKGLDEESKDYLSLYLLLVSCPKSEVRAKFKFSILNAKGEETKAMESQRAYRFVQGKDWGFKKFIRRDFLLDEANGLLPDDKLTLFCEVSVVQDSVNISGQNTMNMVKVPECRLADELGGLWENSRFTDCCLCVAGQEFQAHKAILAARSPVFSAMFEHEMEESKKNRVEINDVEPEVFKEMMCFIYTGKAPNLDKMADDLLAAADKYALERLKVMCEDALCSNLSVENAAEILILADLHSADQLKTQAVDFINYHASDVLETSGWKSMVVSHPHLVAEAYRSLASAQCPFLGPPRKRLKQS
partner: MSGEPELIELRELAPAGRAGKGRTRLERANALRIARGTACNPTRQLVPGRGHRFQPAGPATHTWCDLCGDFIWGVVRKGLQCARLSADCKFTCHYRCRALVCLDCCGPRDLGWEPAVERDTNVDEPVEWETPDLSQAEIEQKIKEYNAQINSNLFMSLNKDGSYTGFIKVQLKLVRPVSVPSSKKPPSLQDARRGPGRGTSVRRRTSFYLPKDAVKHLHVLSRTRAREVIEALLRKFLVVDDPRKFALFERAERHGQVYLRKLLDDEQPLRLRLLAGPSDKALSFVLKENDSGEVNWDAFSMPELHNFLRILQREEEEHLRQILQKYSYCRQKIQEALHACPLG
B2: Speckle-type POZ protein (Homo sapiens), O43791 (parent)
chain: B1 chain
partner: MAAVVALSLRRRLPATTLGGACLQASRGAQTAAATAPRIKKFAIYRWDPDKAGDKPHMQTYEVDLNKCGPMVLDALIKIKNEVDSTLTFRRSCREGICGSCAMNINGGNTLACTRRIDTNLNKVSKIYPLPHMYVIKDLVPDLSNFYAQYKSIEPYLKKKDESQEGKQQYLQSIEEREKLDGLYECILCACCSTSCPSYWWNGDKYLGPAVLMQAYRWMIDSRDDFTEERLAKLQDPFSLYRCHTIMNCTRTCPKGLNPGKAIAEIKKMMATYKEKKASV
B3: Speckle-type POZ protein (Homo sapiens), O43791 (parent)
chain: B1 chain
partner: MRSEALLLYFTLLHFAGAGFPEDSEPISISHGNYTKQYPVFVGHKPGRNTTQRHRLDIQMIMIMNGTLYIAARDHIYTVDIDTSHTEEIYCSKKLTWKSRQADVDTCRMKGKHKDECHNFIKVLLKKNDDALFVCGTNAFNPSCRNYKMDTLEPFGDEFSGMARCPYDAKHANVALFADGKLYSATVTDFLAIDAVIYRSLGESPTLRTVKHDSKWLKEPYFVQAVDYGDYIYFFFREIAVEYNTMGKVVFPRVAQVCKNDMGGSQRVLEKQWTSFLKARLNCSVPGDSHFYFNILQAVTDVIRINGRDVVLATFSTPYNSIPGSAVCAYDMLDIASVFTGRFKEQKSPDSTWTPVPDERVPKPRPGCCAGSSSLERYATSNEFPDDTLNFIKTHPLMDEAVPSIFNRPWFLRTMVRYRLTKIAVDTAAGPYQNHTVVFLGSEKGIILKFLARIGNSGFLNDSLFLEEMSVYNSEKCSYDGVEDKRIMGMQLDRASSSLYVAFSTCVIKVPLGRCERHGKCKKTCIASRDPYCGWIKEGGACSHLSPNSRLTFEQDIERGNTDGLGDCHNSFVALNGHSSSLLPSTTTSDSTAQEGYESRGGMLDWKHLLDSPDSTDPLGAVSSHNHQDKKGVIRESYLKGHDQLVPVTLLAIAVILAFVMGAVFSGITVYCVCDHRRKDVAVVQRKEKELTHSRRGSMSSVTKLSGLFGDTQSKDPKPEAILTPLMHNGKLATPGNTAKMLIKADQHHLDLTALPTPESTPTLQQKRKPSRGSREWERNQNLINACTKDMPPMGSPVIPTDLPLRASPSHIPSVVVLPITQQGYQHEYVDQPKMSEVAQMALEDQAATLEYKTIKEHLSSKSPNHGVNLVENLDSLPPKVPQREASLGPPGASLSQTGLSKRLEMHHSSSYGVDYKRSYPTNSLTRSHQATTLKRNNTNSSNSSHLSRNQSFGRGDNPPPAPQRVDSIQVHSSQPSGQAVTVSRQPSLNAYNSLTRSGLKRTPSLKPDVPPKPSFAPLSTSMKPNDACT
B4: Speckle-type POZ protein (Homo sapiens), O43791 (parent)
chain: B1 chain
partner: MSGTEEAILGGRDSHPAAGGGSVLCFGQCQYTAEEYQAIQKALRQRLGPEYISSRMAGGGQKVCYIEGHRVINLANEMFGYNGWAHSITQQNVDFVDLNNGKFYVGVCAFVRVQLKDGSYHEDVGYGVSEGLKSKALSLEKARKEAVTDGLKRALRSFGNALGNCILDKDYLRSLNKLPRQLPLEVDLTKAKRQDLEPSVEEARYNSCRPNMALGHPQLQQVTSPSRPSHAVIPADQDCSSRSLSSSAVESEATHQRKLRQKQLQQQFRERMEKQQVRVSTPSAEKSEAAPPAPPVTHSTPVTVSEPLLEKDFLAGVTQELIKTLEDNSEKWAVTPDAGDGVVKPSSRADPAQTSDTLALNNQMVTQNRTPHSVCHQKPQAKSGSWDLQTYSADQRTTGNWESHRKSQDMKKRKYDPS
B5: Speckle-type POZ protein (Homo sapiens), O43791 (parent)
chain: B1 chain
partner: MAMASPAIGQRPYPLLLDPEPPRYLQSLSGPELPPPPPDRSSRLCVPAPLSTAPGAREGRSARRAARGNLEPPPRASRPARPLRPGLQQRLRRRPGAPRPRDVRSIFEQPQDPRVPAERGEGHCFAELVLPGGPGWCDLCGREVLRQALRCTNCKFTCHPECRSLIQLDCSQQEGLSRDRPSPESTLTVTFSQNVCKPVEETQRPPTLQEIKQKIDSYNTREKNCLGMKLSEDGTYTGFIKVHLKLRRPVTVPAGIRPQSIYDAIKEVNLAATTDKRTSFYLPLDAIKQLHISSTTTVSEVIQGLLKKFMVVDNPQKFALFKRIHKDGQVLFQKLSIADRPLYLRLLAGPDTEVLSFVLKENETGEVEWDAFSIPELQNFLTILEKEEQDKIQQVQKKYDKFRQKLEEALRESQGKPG
B6: Speckle-type POZ protein (Homo sapiens), O43791 (parent)
chain: B1 chain
partner: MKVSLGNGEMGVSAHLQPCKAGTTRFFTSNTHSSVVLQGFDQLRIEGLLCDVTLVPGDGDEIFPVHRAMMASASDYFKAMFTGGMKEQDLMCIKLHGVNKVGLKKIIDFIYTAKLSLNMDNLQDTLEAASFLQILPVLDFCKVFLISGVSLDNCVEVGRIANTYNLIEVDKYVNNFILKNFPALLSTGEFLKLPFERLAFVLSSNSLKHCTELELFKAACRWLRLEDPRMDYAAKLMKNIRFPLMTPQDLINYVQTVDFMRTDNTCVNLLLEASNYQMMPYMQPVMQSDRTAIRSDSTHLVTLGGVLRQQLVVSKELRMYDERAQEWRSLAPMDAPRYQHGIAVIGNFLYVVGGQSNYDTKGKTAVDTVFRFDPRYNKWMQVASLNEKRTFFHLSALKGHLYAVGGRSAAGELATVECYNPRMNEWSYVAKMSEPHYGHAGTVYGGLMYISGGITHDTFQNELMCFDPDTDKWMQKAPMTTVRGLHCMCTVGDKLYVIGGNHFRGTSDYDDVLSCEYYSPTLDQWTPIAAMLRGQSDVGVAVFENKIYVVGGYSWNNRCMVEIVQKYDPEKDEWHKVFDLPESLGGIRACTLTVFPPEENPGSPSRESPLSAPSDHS
B7: Speckle-type POZ protein (Homo sapiens), O43791 (parent)
chain: B1 chain
partner: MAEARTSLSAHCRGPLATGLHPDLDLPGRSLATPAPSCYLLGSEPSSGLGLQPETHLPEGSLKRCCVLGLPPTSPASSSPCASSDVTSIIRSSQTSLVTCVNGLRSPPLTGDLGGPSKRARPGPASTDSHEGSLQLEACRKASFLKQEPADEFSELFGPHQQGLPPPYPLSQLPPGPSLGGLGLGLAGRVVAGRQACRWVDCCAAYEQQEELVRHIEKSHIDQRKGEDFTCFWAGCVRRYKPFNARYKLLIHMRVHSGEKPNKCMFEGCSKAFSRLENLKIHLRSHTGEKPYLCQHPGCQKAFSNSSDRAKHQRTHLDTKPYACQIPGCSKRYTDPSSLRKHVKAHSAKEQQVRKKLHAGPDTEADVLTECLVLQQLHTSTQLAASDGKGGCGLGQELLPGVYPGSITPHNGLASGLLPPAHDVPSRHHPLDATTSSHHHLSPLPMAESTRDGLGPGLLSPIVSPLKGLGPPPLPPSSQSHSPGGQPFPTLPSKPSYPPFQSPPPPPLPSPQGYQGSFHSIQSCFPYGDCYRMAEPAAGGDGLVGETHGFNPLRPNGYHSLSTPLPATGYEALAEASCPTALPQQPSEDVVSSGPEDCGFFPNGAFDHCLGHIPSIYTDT
B8: Speckle-type POZ protein (Homo sapiens), O43791 (parent)
chain: B1 chain
partner: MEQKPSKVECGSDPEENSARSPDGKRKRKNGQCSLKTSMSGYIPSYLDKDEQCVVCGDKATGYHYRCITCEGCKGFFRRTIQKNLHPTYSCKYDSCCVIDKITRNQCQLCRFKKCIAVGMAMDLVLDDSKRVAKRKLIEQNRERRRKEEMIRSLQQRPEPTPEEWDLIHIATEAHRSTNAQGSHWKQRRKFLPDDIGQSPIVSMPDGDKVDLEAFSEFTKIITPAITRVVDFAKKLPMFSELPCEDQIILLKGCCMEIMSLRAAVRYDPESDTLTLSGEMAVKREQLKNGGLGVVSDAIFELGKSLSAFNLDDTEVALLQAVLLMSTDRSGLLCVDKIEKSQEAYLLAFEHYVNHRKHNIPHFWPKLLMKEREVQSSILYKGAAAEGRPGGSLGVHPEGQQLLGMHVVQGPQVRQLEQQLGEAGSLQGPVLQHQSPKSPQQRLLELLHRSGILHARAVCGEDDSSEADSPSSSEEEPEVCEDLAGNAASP

Variants of: B1
Conditions: with rasf1_human RASSF1, Q9NS23

| effect of a mutation on the interaction | Variant |
| --- | --- |
| with no effect | F133L |

Variants of: B2
Conditions: with sdhb_human SDHB

| effect of a mutation on the interaction | Variant |
| --- | --- |
| with no effect | Y87C |

Variants of: B2
Conditions: with sdhb_human SDHB
Remark: another data set of the same source

| effect of a mutation on the interaction | Variant |
| --- | --- |
| with no effect | F133V |

Variants of: B2
Conditions: with sdhb_human SDHB
Remark: another data set of the same source

| effect of a mutation on the interaction | Variant |
| --- | --- |
| with no effect | F133L |

Variants of: B2
Conditions: with sdhb_human SDHB
Remark: another data set of the same source

| effect of a mutation on the interaction | Variant |
| --- | --- |
| with no effect | F102C |

Variants of: B3
Conditions: with sem6a_human SEMA6A

| effect of a mutation on the interaction | Variant |
| --- | --- |
| with no effect | Y87C |

Variants of: B3
Conditions: with sem6a_human SEMA6A
Remark: another data set of the same source

| effect of a mutation on the interaction | Variant |
| --- | --- |
| with no effect | F102C |

Variants of: B3
Conditions: with sem6a_human SEMA6A
Remark: another data set of the same source

| effect of a mutation on the interaction | Variant |
| --- | --- |
| with no effect | F133V |

Variants of: B3
Conditions: with sem6a_human SEMA6A
Remark: another data set of the same source

| effect of a mutation on the interaction | Variant |
| --- | --- |
| with no effect | F133L |

Variants of: B4
Conditions: with rad52_human RAD52, P43351

| effect of a mutation on the interaction | Variant |
| --- | --- |
| with no effect | F133V |

Variants of: B4
Conditions: with rad52_human RAD52, P43351
Remark: another data set of the same source

| effect of a mutation on the interaction | Variant |
| --- | --- |
| with no effect | F133L |

Variants of: B4
Conditions: with rad52_human RAD52, P43351
Remark: another data set of the same source

| effect of a mutation on the interaction | Variant |
| --- | --- |
| with no effect | F102C |

Variants of: B4
Conditions: with rad52_human RAD52, P43351
Remark: another data set of the same source

| effect of a mutation on the interaction | Variant |
| --- | --- |
| with no effect | Y87C |

Variants of: B5
Conditions: with rasf5_human RASSF5, Q8WWW0

| effect of a mutation on the interaction | Variant |
| --- | --- |
| with no effect | F133V |

Variants of: B5
Conditions: with rasf5_human RASSF5, Q8WWW0
Remark: another data set of the same source

| effect of a mutation on the interaction | Variant |
| --- | --- |
| with no effect | F133L |

Variants of: B5
Conditions: with rasf5_human RASSF5, Q8WWW0
Remark: another data set of the same source

| effect of a mutation on the interaction | Variant |
| --- | --- |
| with no effect | F102C |

Variants of: B5
Conditions: with rasf5_human RASSF5, Q8WWW0
Remark: another data set of the same source

| effect of a mutation on the interaction | Variant |
| --- | --- |
| with no effect | Y87C |

Variants of: B6
Conditions: with klhl9_human KLHL9, Q9P2J3

| effect of a mutation on the interaction | Variant |
| --- | --- |
| with no effect | F133L |

Variants of: B6
Conditions: with klhl9_human KLHL9, Q9P2J3
Remark: another data set of the same source

| effect of a mutation on the interaction | Variant |
| --- | --- |
| with no effect | Y87C |

Variants of: B7
Conditions: with glis1_human GLIS1, Q8NBF1

| effect of a mutation on the interaction | Variant |
| --- | --- |
| with no effect | Y87C |

Variants of: B7
Conditions: with glis1_human GLIS1, Q8NBF1
Remark: another data set of the same source

| effect of a mutation on the interaction | Variant |
| --- | --- |
| with no effect | F133L |

Variants of: B8
Conditions: with tha_human THRA

| effect of a mutation on the interaction | Variant |
| --- | --- |
| with no effect | F102C |

Variants of: B8
Conditions: with tha_human THRA
Remark: another data set of the same source

| effect of a mutation on the interaction | Variant |
| --- | --- |
| with no effect | F133L |
